Target: T1, full-length lysyl oxidase-like 2 (FL-LOXL2), recombinant human (human, UniProt Q9Y4K0 26-774)
T1 construct: Lysyl oxidase-like 2 (LOXL2), human, full-length cDNA in pcDNA3.1-myc-His, amplified from the start ATG; the protein was secreted by CHO cells; also called LOX-like 2; source: DHFR-deficient CHO cells, transfected, secreted into Opti-MEM; purified (HisTrap, gel filtration)
T1 sequence (looked up): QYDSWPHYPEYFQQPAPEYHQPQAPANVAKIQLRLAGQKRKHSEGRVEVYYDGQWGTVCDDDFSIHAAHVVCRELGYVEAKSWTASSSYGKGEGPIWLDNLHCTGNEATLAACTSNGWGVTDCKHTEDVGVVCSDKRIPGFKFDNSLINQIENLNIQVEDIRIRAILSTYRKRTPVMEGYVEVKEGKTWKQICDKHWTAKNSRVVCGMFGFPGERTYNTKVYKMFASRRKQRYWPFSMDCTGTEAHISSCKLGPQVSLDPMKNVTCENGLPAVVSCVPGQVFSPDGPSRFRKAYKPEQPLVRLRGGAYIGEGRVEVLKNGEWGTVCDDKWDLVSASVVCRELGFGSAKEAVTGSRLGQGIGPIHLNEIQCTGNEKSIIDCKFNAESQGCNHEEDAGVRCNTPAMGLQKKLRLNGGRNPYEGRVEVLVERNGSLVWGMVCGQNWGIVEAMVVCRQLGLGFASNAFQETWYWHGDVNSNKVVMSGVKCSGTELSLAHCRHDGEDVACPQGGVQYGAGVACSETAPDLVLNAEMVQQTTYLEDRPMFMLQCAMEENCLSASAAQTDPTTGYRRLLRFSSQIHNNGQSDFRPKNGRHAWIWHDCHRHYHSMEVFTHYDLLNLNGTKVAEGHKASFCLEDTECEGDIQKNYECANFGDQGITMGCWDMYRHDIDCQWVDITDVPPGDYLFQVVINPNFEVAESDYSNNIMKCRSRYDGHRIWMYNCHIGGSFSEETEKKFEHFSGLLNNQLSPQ
Assay: SPR; ProteOn XPR36; LOXL2 amine-coupled on a GLC chip; TE as analyte, serial 1:1 dilution from 830 nM; 10 mM Na-HEPES, 150 mM NaCl, 2 mM CaCl2, 0.05% Tween 20, pH 7.4, 25°C; steady-state analysis
Conditions: both partners purified

B1: human tropoelastin, isoform 2 (natural protein, UniProt P15502-2 27-724, looked up)
chain: GGVPGAIPGGVPGGVFYPGAGLGALGGGALGPGGKPLKPVPGGLAGAGLGAGLGAFPAVTFPGALVPGGVADAAAAYKAAKAGAGLGGVPGVGGLGVSAGAVVPQPGAGVKPGKVPGVGLPGVYPGGVLPGARFPGVGVLPGVPTGAGVKPKAPGVGGAFAGIPGVGPFGGPQPGVPLGYPIKAPKLPGGYGLPYTTGKLPYGYGPGGVAGAAGKAGYPTGTGVGPQAAAAAAAKAAAKFGAGAAGVLPGVGGAGVPGVPGAIPGIGGIAGVGTPAAAAAAAAAAKAAKYGAAAGLVPGGPGFGPGVVGVPGAGVPGVGVPGAGIPVVPGAGIPGAAVPGVVSPEAAAKAAAKAAKYGARPGVGVGGIPTYGVGAGGFPGFGVGVGGIPGVAGVPGVGGVPGVGGVPGVGISPEAQAAAAAKAAKYGVGTPAAAAAKAAAKAAQFGLVPGVGVAPGVGVAPGVGVAPGVGLAPGVGVAPGVGVAPGVGVAPGIGPGGVAAAAKSAAKVAAKAQLRAAAGLGAGIPGLGVGVGVPGLGVGAGVPGLGVGAGVPGFGAVPGALAAAKAAKYGAAVPGVLGGLGALGGVGIPGGVVGAGPAAAAAAAKAAAKAAQFGLVGAAGLGGLGVGGLGVPGVGGLGGIPPAAAAKAAKYGAAGLGGVLGGAGQFPLGGVAARPGFGLSPIFPGGACLGKACGRKRK
notes: also called TE; source: E. coli, purified (acetone/buffer extraction, filtration, dialysis, freeze drying)
Kd: 146 nM

— PMC6629125, “Lysyl oxidase–like 2 (LOXL2)–mediated cross-linking of tropoelastin” (The FASEB Journal, 2019)
